According to the supplement of paper PMC9170038:

How the values were obtained:
[1] = test system: MS2 coat protein; assay: apparent KD of MS2 coat protein; designed switch direction (-1 OFF switch, 1 ON switch): 1; higher = weaker reporter binding
In short: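 Normalised cluster fluorescence was curve-fitted, and each design's median over clusters is its apparent KD. Before this, SNAP-549-labelled MS2 coat protein was titrated from 0.7 or 1.5 nM, doubling to 3 µM, over RNA switches transcribed on Illumina chips by stalled E. coli RNA polymerase. Titrations had no input, 200 uM small-molecule ligand, or an oligonucleotide input, and steps lasted 0.8–1.5 h (lowest) to 10–20 min (highest).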

[2] = test system: MS2 coat protein; assay: apparent KD of MS2 coat protein; higher = weaker reporter binding; conditions: Eterna round: R107
In short: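 In 100 mM Tris-HCl pH 7.5 with 80 mM KCl and 4 mM MgCl2, and without or with constant ligand, SNAP-549-labelled MS2 coat protein was titrated in twofold steps from 0.7 or 1.5 nM to 3 µM. Per-step times went from 0.8–1.5 h down to 10–20 min. The RNA switches were transcribed on-chip from Illumina sequencing clusters, and apparent KD is the per-design median of normalised cluster binding-curve fits.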

[3] = input ligand: microRNA oligo, concentration not stated
[4] = input ligand: theophylline 20 uM
[5] = input ligand: theophylline 2 mM
[6] = input ligand: tryptophan 2.4 mM

Sequence	apparent KD of MS2 coat protein ([1]; input ligand: FMN 200 uM) [nM]	apparent KD of MS2 coat protein [1, 3] [nM]	apparent KD of MS2 coat protein ([1]; input ligand: none) [nM]	apparent KD of MS2 coat protein ([2]; input ligand: arginine 13.2 mM) [nM]	apparent KD of MS2 coat protein ([2]; input ligand: none) [nM]	apparent KD of MS2 coat protein [2, 4] [nM]	apparent KD of MS2 coat protein [2, 5] [nM]	apparent KD of MS2 coat protein [2, 6] [nM]
AAAAAACAUGAGGAUCACCCAUGUAAAAAUAUGGGAGGAUAUUCAAACACGAAAGUGAAAGAAGAAGGCCUAAAAA [SS! MT 18] (Eterna round: R96, puzzle: Same State 1)	17.5	56.7	81.3					
AAAAAACAUGAGGAUCACCCAUGUCAAAAGACGUGAGGAUAUGUACAGACUUCGGUCUGUACAGAAGGCACGAAAA [SS1 - 1037] (Eterna round: R96, puzzle: Same State 1)	17.6	19.1	26.9					
AAAAGCGACGUAGGAUAUCCUCUACAUGCGUAAGGAGAAGGAUGCGCAACAUGAGGAUCACCCAUGUAAAACCAGCACUACUGG [Zalaendi] (Eterna round: R96, puzzle: Same State NG 1)	53.1	32.6	44.9					
UGCCGAGACGUGGAUUACCCAUGUACCGAAGGAGCGCCCGAAAGGGCAGGUAGGUCGCGGAGGACAUGAGGAUCACCCAUGUCGA				83.8	34.5	127	166	47
UGGGUACCGACGGCCGCCACUGACUAUAGACAUGAGGAUCACCCAUGUAGAGAUCCUAGACUACCCAGGACCGGGUCUGGUGCUA [Exclusion Tryptophane B GF6]				61		165	149	
UGGUGUAGGGUAAAUAGGAUUAGUACAGAAGGAGCGCGAAUAAACGCAGGUAGGUCGCUGGAAUAACAUGAGGAUCACCCAUGUC [Same State Arginine A GF 26]				19.6	24.8	30.6	26.2	27.8
UGUAACAUGAGGAUCACCCAUGUGAGUGAUACCAGAUAAGUAGUAGUCCCUUGGCAGCAUAUUGGGCGAGUGUAUAGUCUAUACG [Same State - Theophylline A (Freestyle 8)]				111		183		150
UGUAUGGACUGAAGGAGCGCCUCAAAAUAGCUUGAGGAUCACCCAAGUAAGGCGAAAGCCGGGCAGGUAGGUCGCAGUCCAUACU [ArgBX 3]				12.3	14.3	16.6	15.2	14.8
UGUAUGGACUGAAGGAGCGGAAGAUAACCUGAGGAUCACCCGGGUAAUAAGGCGAAAGCCUUCCAGGUAGGUCGCAGUCCAUACU				230	293	334	419	250
UGUAUGGACUGAAGGAGCGGGAAAUAAACCUGAGGAACACCCAGGUAAUAGGCGAAAGCCACCCAGGUAGGUCGCAGUCCAUACU				17.2	13.6	14.8	14.4	18.8
UGUAUGGACUGAAGGAGCGGGAAAUAAACCUGAGGAUCACCCAGGUAAUAGGCGAAAGCCACCCAGGUAGGUCGCAGUCCAUACU				10.7	9.91	14.3	12	10.6
UGUAUGUGAACUGAUACCAGACCUCAAUCUUGAGGAUCACCCAAGGAGGACGAAAGUCCGGUCCCUUGGCAGCAGUUCACAUACU [ThBS - Unstable 2]				162	664	737	40.5	1390
UGUAUGUGAUCUGAUACCAGCUAAUAAGCUUGAGGAUCACCCAAGUGGAGCGGAAACGCAAGCCCUUGGCAGCAGAUCGCAUACU [Denovo 4 #StaticStem #AlternativeMS2]				60.9	89.3	50.6	12.7	98.9
UGUAUGUGAUCUGAUACCAGUCCAACUGGUAAAACAUGAGGAUCACCCAUGUAAAAUUGGGACCCUUGGCAGCAGAUCGCAUACU [ThBS 2]				259		418		615
UGUAUGUGAUCUGAUACCAGUCCAACUGGUAAAACCUGAGGAUCACCCUGGUAAAAUUGGGACCCUUGGCAGCAGAUCGCAUACU				222	350	674	125	560
UGUAUUGGAAACAGUACUAGUGAUCCGGUCCGAGGACCGGUACGGCCGCCACUCGAUAUAAAUAAACAUGAGGAUCACCCAUGUA [Ex Tryptophan A 13]				23.3		17.1	18	
UGUCAUGGAAACAUGACAGGUCUUACCGGUCGAGGACCGGUACGGCCGCCACUCGAUUGGUGGCACAUGAGGAUCACCCAUGUUA [SS Tryp A #16]				21.8		47.3	34.3	
UGUCGGCGUAAGUUGGCAUGUCUUGCUGGUCGAGGACCGGUACGGCCGCCACUCGAUCCUUCGCACAUGAGGAUCACCCAUGUUG [SS Tryp A #25]				20.3		29.3	20.4	
UGUGUAAUUGUCUGGUAGAAUUAUUUGUUUCGAGGACCGGUACGGCCGCCACUCGAUAUUUACAUGAGGAUCACCCAUGUUAGCU [JR_SSTryptoA_Sub004]				13.9	14	14.3	14.9	11.6

Sequence	apparent KD of MS2 coat protein ([1]; input ligand: FMN 200 uM) [nM]	apparent KD of MS2 coat protein [1, 3] [nM]	apparent KD of MS2 coat protein ([1]; input ligand: none) [nM]	apparent KD of MS2 coat protein ([2]; input ligand: arginine 13.2 mM) [nM]	apparent KD of MS2 coat protein ([2]; input ligand: none) [nM]	apparent KD of MS2 coat protein [2, 4] [nM]	apparent KD of MS2 coat protein [2, 5] [nM]	apparent KD of MS2 coat protein [2, 6] [nM]
UGUUUCGCGGGCGAUACCAGCUUGAUCGUACUGGCCUGGUACAUGAGGAUCACCCAUGUAAGCCCUUGGCAGCGCGCGCGAGACG [#1 Exclusion - Theophylline B Attempt #3 (HarryS)]				19.6	13.5	18.9	32.4	15.7
UUAAAUGUGACGGAUACCAGCGUGUUGUAGAACAUGAGGAUCACCCAUGUAGUGAUCAAGCGCCCUUGGCAGCUGGUAUGUUUGA [7.Z]				227		224		124
UUAAAUGUGACGGAUACCAGCGUGUUGUAGAACAUGAGGAUCACCCAUGUAGUGAUCGAGCGCCCUUGGCAGCUGGUAUGUUUGA [7.Y]				102		365		270
UUAAUUAUUGAAUCGUAUUGGUAUUAAGAACGAGGACCGGUACGGCCGCCACUCGUGAUAUACAUGAGGAUCACCCAUGUUAGCA [JR_Nu_SSTryptoA_Sub022]				15		18.6	18.1	
UUACCGUAAGGUAUACCGGUCUACAAUAAUCGAGGACCGGUACGGCCGCCACUCGAUGUGUAAUCACAUGAGGAUCACCCAUGUA [Tryptophan A 19]				21.1		27.7	27.4	
UUAGAUAUGACGGAUACCAGCGUGUUGUAGAACAUGAGGAUCACCCAUGUAGUGAUCGAGCGCCCUUGGCAGCUGGUAUGUUUGG [7.T]				175		203		335
UUAUAAGUACCGGUCCUCAGAUCCUCAUGACGAGGACCGGUACGGCCGCCACUCGAAACAUGAGGAUCACCCAUGUAAUAAUACU [Brourdmod08]				21		34.5	33.1	
UUAUGAUGUUCCGAUACCAGCCAUGUGGUUCUAACUUAACAUGAGGAUCACCCAUGUACCGGCCCUUGGCAGCGGAUGUGGAUUA [Flamini]				12		14.8		12.6
UUCAGCUAGUCGGCCGCCACUACUUGAGGAUCACCCAGGUAGGUCCACACUGCUUCGGCAGUGAGUAGGACCGGGACUAGCUGAG				31	32.8	32.2	39.4	272
UUCGUUUACGGAAGGAGCGACGGACAUCGGUGAACGACGCACAUGAGGAUCACCCAUGUACGUCAGGUAGGUCGCCGUUAAGAGU [Somama]				23	17.4	27.7	19.6	19.2
UUCGUUUGCGGAAGGAGCGACGGACAUCGGUGAACGACGCACAUGAGGAUCACCCAUGUACGUCAGGUAGGUCGCCGCUAAGAGU [Tibira]				15.5	18	22.3	25.2	19.8
UUCUUUAAGUCGGCCGCCACUGAAACAUGAGGAUCACCCAUGUAAAUUUGGGAGUAGUUAUAUUACAGGACCGGGACUAUAGUAA [JR_ExcTryptoB_Sub020]				34.8		48.8	51	
UUCUUUAAGUCGGCCGCCACUGAAACAUGAGGAUCACCCAUGUAUAUUUGUGUAUAGGUGGAUUACAGGACCGGGACUAUAGUAA [JR_ExcTryptoB_Sub023]				15.1	14.7	20.2	15.2	14.7
UUGAACAUGAGGAUCACCCAUGUGGAUGAUACCAGCUAAAACAUAAGCCCUUGGCAGCAUUAAAAUGAAAUAUCGAAAAGGAAAG [theeternabot_sameState_MS2_Theo_A_1]				95.1		179		127
UUGGCAGCAUGGGUGGCUGCCAAGGCUGAUACCAGCCACGAAAGUGGCCCUUGGCAGCAGCAAACAUGAGGAUCACCCAUGUUAA [(T)''-(M)'-(T)'-(Theo)-(Ms2)_Design3]				87.2	86.3	105	104	93.3
UUUAGUAUCUUAGAUACCAGUUUUGGGUGCUGAACGUCUCACAUGAGGAUCACCCAUGUAAACCCUUGGCAGCUACAUACGUAAA [theeternabot_exclusion_MS2_Theo_B_41]				35.7		58.9		51.9
UUUUUCGCGGGUGAUACCAGCAGAGUUGUACUGGUCUGGUACAUGAGGAUCACCCAUGUUUGCCCUUGGCAGCGCUCGGGAGAAG [#23 Exclusion-TheophyllineB]				29.3	19.8	32.1	44.4	24.1
UUUUUCGUAGGUUAUAGUUUAGAAACUGAAGGAGCGUGGUAAUACACAGGUAGGUCGCAGAUUUUACAUGAGGAUCACCCAUGUU [JR_ExcArginiA_Sub013]				23.5	24.1	27.6	25.1	22.7
